Data: PMC4764565, “Synergistic integration of Netrin and ephrin axon guidance signals by spinal motor neurons” (eLife, 2015)

Biological target: T1, EphB2-GFP (mouse, UniProt P54763 19-986)
T1 construct: ephrin receptor EphB2 (plasmid Ephb2-GFP, Kao et al., 2009); also called EphB2 fused to GFP; wild-type EphB2-GFP; source: HEK293 (ATCC CRL 1573), transfected (calcium phosphate), in lysate
T1 sequence (looked up): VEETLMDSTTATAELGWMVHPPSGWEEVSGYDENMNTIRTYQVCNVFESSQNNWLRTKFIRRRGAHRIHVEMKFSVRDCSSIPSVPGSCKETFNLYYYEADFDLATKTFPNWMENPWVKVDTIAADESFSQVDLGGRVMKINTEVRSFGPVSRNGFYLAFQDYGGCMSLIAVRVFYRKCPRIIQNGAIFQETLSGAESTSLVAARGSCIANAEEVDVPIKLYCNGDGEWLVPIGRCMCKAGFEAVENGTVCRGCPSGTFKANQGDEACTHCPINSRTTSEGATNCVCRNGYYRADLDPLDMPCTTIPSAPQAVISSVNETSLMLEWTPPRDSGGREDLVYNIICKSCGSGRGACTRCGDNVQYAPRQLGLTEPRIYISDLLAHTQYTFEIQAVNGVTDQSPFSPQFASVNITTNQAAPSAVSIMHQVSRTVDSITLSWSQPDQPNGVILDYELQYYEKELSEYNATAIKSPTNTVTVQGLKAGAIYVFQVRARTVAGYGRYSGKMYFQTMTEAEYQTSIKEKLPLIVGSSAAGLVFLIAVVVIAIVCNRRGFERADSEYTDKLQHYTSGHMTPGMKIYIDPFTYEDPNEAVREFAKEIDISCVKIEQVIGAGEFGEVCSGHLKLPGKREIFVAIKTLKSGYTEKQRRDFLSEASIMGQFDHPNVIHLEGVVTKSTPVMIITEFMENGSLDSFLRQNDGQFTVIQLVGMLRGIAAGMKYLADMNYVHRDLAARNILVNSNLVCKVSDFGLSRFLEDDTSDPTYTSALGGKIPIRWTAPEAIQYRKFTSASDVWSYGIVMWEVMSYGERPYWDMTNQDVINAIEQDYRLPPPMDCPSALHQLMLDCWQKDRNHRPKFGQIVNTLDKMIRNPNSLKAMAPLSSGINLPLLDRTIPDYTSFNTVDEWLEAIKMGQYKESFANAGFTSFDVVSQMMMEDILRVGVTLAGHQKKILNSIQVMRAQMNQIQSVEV
Test: co-IP; anti-GFP antibody on ProteinA/G agarose, overnight, pre-cleared lysates of co-transfected HEK293 cells (10mM Tris-Cl pH 8, 137 mM NaCl, 2mM EDTA, 1% NP40); blot for Myc; in the ligand experiments cells were starved 2 hr in OPTIMEM and incubated 15 min at 37°C with pre-clustered Fc, eB2-Fc or eA3-Fc (1.5 μg/ml), Netrin-1 (250 ng/ml) or eB2-Fc+Netrin-1 before lysis
Conditions: partners not purified

fold increase of the association after pre-incubation with eB2-Fc (against Fc): ~22 fold
B1: Unc5c-Myc (receptor)
chain: not shown
notes: Netrin receptor Unc5c, mouse (plasmid mUnc5c-Myc, gift of Franck Polleux); also called mUnc5c-Myc; source: HEK293 (ATCC CRL 1573), transfected (calcium phosphate), in lysate
